The record followed here is a protein production outcome set (Wang et al. 2014).

This data set in a line: label from the status in PepcDB records.
For the sequence “MSNAVSAENEGPGAIPGLLHLSGPCVYVAGSQGVSMTQTMPIGAVIAPVTPLQQNCTIVWCAKTLKAAVIDPGGEVDRLLKAIADKGLTLEKIWITHGHMDHAGGAAELKARTGVPIEGPHKDDQFWIDRIQDSGEMYGMPEARIFVTDRWLDDGDTVTLGETEFEVFHCPGHTPGHVVFFHRETKFAQVGDVLFQGSIGRTDFPMGNHQDLIDSITQKLWPLGEDVRFVPGHGPMSTFGAERRGNPFVGDRVVAAMKAQGAGFTIPKNNSPG”, the protein production result was “failed”.
The same measure for “MARNSDNDMCKEERKRESFFKVLQRVDISSENMRALPYDFVRSFSNNELSRKMKIKARWGSSWEVEICKNPRFYFMEKSGWEKFVSDNALGASEFLTFTHKGNMRFTVNIFMQDGKEMLQPPQSMSFMASSRPPKREQGIPSLATTIAAESNGGGNYKRKLNFEKKKAEESHNSKRTDKVFSVQRESAGASSSSVAEFSMFIKKSYLIYMWFPKSVQSIHMPKQRTIFKIHHPNMKKSWNVVYVVSGTKSSFSAGWKGLAQEYPLAVGDTCKFSFIKQHELILFVSKP”: “failed”; for “MSSATGRWRESPPTAVKNEEDNGRCPRELRVQSEAVLAGRYRLEERLGRGGMGEVWRAFDPHLEREVAVKLILSGDNDGVLIRRFQREARISANIQHPNITAVHDFGHHEGQLFLVMELLRGRDLGAVLADHPQGMPLDLVVSVAVQAADALRAAHTHRVVHRDLKPGNLFLLDTGHVKVCDFGIAHIADATSQLTAVGTALGTPAFMPPEQWKGEEVDSRSDVYALGGVMHTMLTGRIPFTGPLPALLAQHLTQDPPPIREFRPDVPLELADLVARMMAKDPAARPDSHELGELIYRAAAPEASGSPAFFSPQIAPQALPTAPPTAAPVPPQPSHATGYAAPSQWMPAAPQPHPTAHPPAEGDPQTMFTLGLRHREQGDIAGAESWYRKAAEAGHLDSMFNLALLSRERGNLVEAESWYRRAAEVGDVDAMVNLGDLLKERGESAEAELWHRRAAEAGHIASMHTLGNLLYSKGDTAEAETWWRRAAEAGNIRAMGVLGNLLEQRGDTFGAEQWYRRAAEAGNLDAMVNLGVLLENRHDTFGAEQWYRRAADAGDIDAMVNLGNLLHGRGDMGSAQYWWQRAAQTGNTRALNHLNQMG”: “failed”; for “MKVKIGLKCSDCEDINYSTTKNAKTNTEKLELKKFCPRENKHTLHKEIKLKS”: “failed”.
The entry for “MCDKDIYNNKEMIILNKQQVTKAIEKVLNSSKIGVLSTAHHNKPNSRYMVFYNDDLNLYTKTNVNSLKVEEIENNPDAHILLGYNETTNNSFVEIDATIEVVKDQKVIDWLWETQDKTFFNSKEDPELCVLKVIPRSIKLMNDDELDTPATIEL” is “not failed”.
The entry for “MMTKKERIAIQRSMAEEALGKLKAIRQLCGAEDSSDSSDMQEVEIWTNRIKELEDWLWGESPIA” is “not failed”; for “MASSKELCSIREWAPLTEVIERIPARLQRGFFPANLNLTCVDATEEFLAMGSDAGIVFWYNRHTGEMQKLKAEVATRITCVRVVNSVEYMVAAGCANGQVSIFQIQKELPRDLDLVAPCTKSRPIERYTIRDLHKCVVSCCEWSKNGMKLYSGDRQGVVVLTELDYQAHLSKSVEILSEAYEIVQLSVRQSYLLVATLYRCIVCQMDAQTSQWNITQVGKKDRKQLIDCGAIFLKKQEANKPQLVCGRPGLRFWVADAAGNVSKTVIFRDAVLRSPTWEIPILNPKQRSEPSGTHHTSASTSSTRHSGLADGDVGYVASSNFRQLYLYDGHDSLLVTHDDATLYVLNLDRLKVEAVARGLRKILDFCVCGKEIFVLEGNRTLLRLAPLPEPPNKTAKVIFNPLMPPPVPVLGSHLSQLESPIELQAEPVLQNAEECFELSPVEQLNLNVPIEIAVESPLTQQNRRLEIFRRIGEMDFEQSIVHTTRKTSVGKPPEASGVGIVEIGHETHELRLPLTNAATLMEASYCQMENNGLASPLDMKAAFLQHLPDALSPTTLQKTVAEKAKTLAAELDLPEVHLAPLSQEELHAVQAQTPQISDPLIRCYPTHLEEASIQTSSRENATNPADDYHVGEPVDGIRSFGVSKRKMAPLKFVLSQPKPTLKLEENRDDEEYTSFLPDFRRAGDPLAIHKETPATSDSNTSSEWEFLDN” it is “failed”; for “MMPSVHRRSRPWDPEATPRIPEMALQPAAGARDLNPRQVESNRALSERLASVFRLWGYDEVSPPRVERLDTLMAGGAIASEDVVRLVADEPLGLRPEMTASIARAACTRLASRPRPLRLWASGTVFQSRAADEGGQCIEENLQCGVELFGVAPIEAEMELLSLLMAAVERLDFQAQHQPRLLMGHTGLMDLLLSPVPPVLRDAVRAALIQYDRLGLETIELEEGLRATLLSLLDCRGTPNEVLERLSSCFGAQALFDDLHRLCRQLQGPAAAQGVRLQLDPTFQPRFELYTGLVFQLVCDTHSAPVVVARGGRYDDLVRRCGAQPGQDFGAGFSLAIDPIRELLSDSSSNPTVAPQLMVAFSERSTLEAALERQRWWHQQGRSAVIELHPFSTRSLAEQQATDQGGFQLDWIDP” it is “failed”.
“MSSPVISPETKTGKKILLAAPRGYCAGVDRAVETVERALEEYGAPIYVRKEIVHNRYVVDTLAEKGAIFVNEASEAPEGANMVFSAHGVSPMVHEEAAAKNIKAIDAACPLVTKVHKEVQRFDKQGFHILFIGHEGHEEVEGTMGHSVEKTHLVDGVAGIATLPEFLNDEPNLIWLSQTTLSVDETMEIVRELKVKFPQLQDPPSDDICYATQNRQVAVKAIAERCELMIVVGSRNSSNSVRLVEVAKQNGADNAYLVDYAREIDPAWFEGVETIGISSGASVPEILVQGVIERLAEFGYDDVEEVTSAAEKIVFALPRVLRHKN”: the protein production entry is given as “not failed”.
The entry for “MDVLSPGQGNNTTSPPAPFETGGNTTGISDVTVSYQVITSLLLGTLIFCAVLGNACVVAAIALERSLQNVANYLIGSLAVTDLMVSVLVLPMAALYQVLNKWTLGQVTCDLFIALDVLCCTSSILHLCAIALDRYWAITDPIDYVNKRTPRRAAALISLTWLIGFLISIPPMLGWRTPEDRSDPDACTISKDHGYTIYSTFGAFYIPLLLMLVLYGRIFRAARFRIRKTVKKVEKTGADTRHGASPAPQPKKSVNGESGSRNWRLGVESKAGGALCANGAVRQGDDGAALEVIEVHRVGNSKEHLPLPSEAGPTPCAPASFERKNERNAEAKRKMALARERKTVKTLGIIMGTFILCWLPFFIVALVLPFCESSCHMPTLLGAIINWLGYSNSLLNPVIYAYFNKDFQNAFKKIIKCKFCRQ” is “failed”; for “MDLPVMPPVKPMLAKSVAKIPPGMHYEAKWDGFRAIVYRDGDEVELGSRTGKPLTRYFPELVVAVRERLPERCVVDGEIVIARDGHLDFDALTERIHPADSRVRTLAERTPASLVAFDLLALDDASLLDVGLADRRALLVRALSGVTPPVHVAPATDDIEVARRWFEQYEGAGLDGVVAKPLDLRYRQDERAMYKIKHERTADVVVAGYRFHKSGPVVGSLLLGLYDDRGLLQHVGVSAAFTMKRRAELVAELEPLRMDDARGHPWAAWAEEAAHESARLPGAPSRWSGKKDLSWVPLRPERVVEVAYDHMENGARFRHTARFRRWRPDRTPESCTYAQLEEPVRYDLAEILGGPLEHHHHHH” it is “failed”.
Regarding “MFKGLRYLTFVFGGLLGILLAYGFGQVVELELSKFAVISIYSIFAIIFGIIFYLLFPVILKKLTVNFENMIKKAQKTPTSDIVTAIIGLIVGLIIAFLISLPISNIKFPVIGNLLSATITIFIYCALGFIGIKIAVDKKEEILKFKLFSREKSFKKGHVYPKILDTSVIIDGRIYDIIKTGFLEGPIIIAMFMVKELQYIADSEDPNRRQRGRRGLDILDLLQNEKNIEIKIVDKDYKNIKEVDHKLLKLTEDYHGKLITNDYNLNKVASLQKISILNINELALAVKPVVIQGEKLIVEVINRGKEPEQGLGYLSDGTMIVVEDGKDYIGQTIETTVTSILQTPAGKMIFTRKNLK”, the protein production result is on record as “failed”.
The same measure for “MSIPSFLKLVEIQTKIASVFPFMLGTLFVVYQYDMFKPINTLIIFGSMLIFDLTTTAINNYMDYRKATDNHDYDYRTTSNVIGQEQIPVRTVIITIFLMFFIATGLGVWLVFRTDLLVLLIGFVCFCIGILYTFGPVPLSRMPLGEIFSGVTMGFGIFFLAVYVNAYDAGIANLLWQGEMVTIQFNLIEIIRIGVVSLPCIFTIANIMLANNLCDLDEDIRNHRYTLPYYIGRKMGVLLFNTLYYASFLAVVVSVAINFLHPIMLLSLITIYPVYRNLVKFNKEQVKSKTFVIGIRNFVLINATLTILMAVSVVLQQLT”: “failed”; for “MAYVTLYPNLILEALGKVRYPGTGKDLVSAGMVEDDIRIDGNKVSFSLIFDKANDPFIKSVVKAAESAILTYISEDVNIKGNISVKSKQAIPAPPAKLLPGVKNIIAVFSGKGGVGKSTVTANLAVSLAKSGYRVGLLDADIFGPSMPKMFHCEESRPVLEEVDGRELIVPEEVMGVKILSIGFFVDPDNAVLWRGSMAGNALTQLIRDANWGELDYFLIDMPPGTSDIHLTLVQTLAITGAVVVTTPQDVALADARKGISMFVGEKINVPVLGLVENMSWFTPAELPQNKYYIFGRDGGKNLAEELNIPLLGQIPLVQGICQSGDEGIPVAVRDDSMMGIAFRELAARVVEQVDYRNEHLDPTKVVEVAHR”: “failed”.
The entry for “MSRNKGVQYLSSSEHSLKDYLPILSMAGLILIVQVLALLLSMPMEINDMQAFEDPTQVSNSIYYIVMILVFTLFVLIAIKKNMKWIISLLIYLAIVSTLYYVFFALFTLIPALAGLENIASLLLSIGLTVLLYKYPEWYVIDLLGVCIAGGVSALIGISLSIIPVVVLLILLAVYDAISVYKTKHMIAMAEGVMDLKLPILFIIPKHLNYSFITEGFKEGEKREAFFMGLGDAVMPTLLVVSANVFLENGGLSYPVLGAMLGTLVGHIFLSILVMRGKPQAGLPFLNSGAIIGFFIGVLFSGASIL” is “failed”; for “MFSSFSSRRRFRDLSDAEILALAISSEEDDARIYRSYADRLRAPYPGTAALFEAMAEEEDSHRRRLIGTFRDRFGETIPLIRREHVEGYPSRKPVWLLETLPLERVRREAWEMENAARSFYETAARHVTDASTRKLLGDLAAAEAAHEHRAERLAEEHLTDEATAAEDETARRQFILTWVQPGLAGLMDGSVSTLAPIFATAFATQDPATTFQVALAASVGAGISMGFTEAAHDDGVLSGRGAPWKRGLASGVMTTAGGLGHALPYLIPDFAWATGIAIAVVFFELWAIAWIQNRYMETPFLRAALQVVLGGGLVLAAGILIGFG” it is “failed”.
The entry for “MSTAVASAPRSGQVLADLLPASRVRDAALVLGGAALTGLAAQISLPVPGSPVPVTGQTFAALLVGTALGAGRGFLSLAVYALVGMAGVPWFAGGGSGAAAPSFGYILGMLLAATVVGALARRGADRSVLRTAGAMLLGEAIIYAIGVPYLAFATGMSLTAAIAAGLTPFLIGDALKAALAMGVLPTAWKFLNR” is “failed”.
As for “MIAAVAVFALTYVAVAAGRFPYLSLDRPAAALLGAVLMVALGVLTPAEGGAAVNGETLGLLLGMMVLTAYLGEAGFFRWASWRVLRAAGTPRTLLWGVVFTAGALSALLVNDTVCLMMTPLVLRMVDDADLPPLPYLLAVAFGSNAGSAATLTGNPQNMIVGTLSGIGYGRFAAALALPALASLLLVAALLHALFRRALPRGPLAGGRPAAPAVDRALLAKALGALALAVTGFLLGLELAWTALFAAALCMAIAGRAPREALQRVDWPLLVFFAGLFVVVAGIGRAGVTERMYQAVAPLLGADPARQSAVFGLFSIAASQVVSNVPFVILAGEWIPRLADPTLLWLATALCATLAGNLTIVGSVANVIVLELAGSRGRIGFWRFFRVGAVVTAATVAAGLGILLLEHRLGLIG”, the protein production result is on record as “failed”.
